Data taken from the supplement of paper PMC10567573.

B1: ATL3 (parent)
chain: FSFRYQQELEEEIKELYENFCKHN

Variants of: B1
Test: protein stability index of a GFP-peptide fusion (GPS, HEK-293T) (PSI 1-6); higher = more stable
Details: c terminus: a fixed tail appended
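Also: lentivirally expressed fusions sorted by FACS into six bins by GFP to DsRed ratio, PSI derived from sequencing read proportions per bin multiplied by bin number.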

Protein stability index, by site and new letter:
E10: Y 1.75, F 2.06, H 1.81, Q 2, C 1.77, K 2.2, R 1.78, T 2.37, A 2.02, N 2.13, L 1.6, W 2.02, S 2.23, P 2.61, M 1.75, V 1.47, D 3.31, G 1.9, I 1.46
N19: W 1.73, Y 1.89, T 1.99, L 1.98, S 2.41, E 2.06, G 1.73, C 2.02, Q 2.04, H 1.97, K 1.92, V 1.81, M 1.66, A 2.28, F 1.72, R 2.31, I 2.04, D 1.44, P 2.16
L9: I 2.5, H 3.64, Q 3.09, G 2.75, M 2.65, R 3.33, Y 2.24, T 3.48, E 2.11, D 3.2, W 2.66, C 3.22, V 2.11, P 2.63, S 2.41, K 2.68, A 2.6, F 2.16, N 2.81
E12: C 1.76, G 2.1, S 2.03, M 1.76, D 2.84, A 1.97, I 2.07, Q 2.53, Y 2.06, K 2.27, N 2.09, H 2.29, R 1.76, P 2.17, L 2.74, F 1.91, V 2.08, T 1.79, W 2.04
K22: I 2.23, E 2.41, C 2.06, D 2.42, W 1.35, G 2.58, S 2.33, Y 2.01, P 1.97, R 2.12, L 2.77, N 2.54, M 2.24, A 2.45, T 3.02, V 1.99, H 2.04, Q 2.93, F 2.08
E11: A 2.76, D 2.38, P 2.25, N 2.69, V 1.53, I 2.11, C 1.61, G 2.21, S 2.58, H 2.29, K 2.55, M 2.37, R 1.98, F 1.45, W 1.8, Q 2.18, Y 1.6, L 1.58, T 2.74
Q7: L 1.92, V 2.17, D 2.35, G 3.13, W 1.84, E 2.64, P 3.07, C 2.15, A 2.04, R 2.3, K 2.46, H 2.2, S 2.24, I 1.75, N 2.51, T 2.59, Y 2.91, M 2.39, F 1.65
E8: R 1.65, H 2.27, S 1.89, V 1.46, N 2.44, F 1.89, L 2.1, M 1.97, G 2.68, C 2.11, I 1.72, P 2.02, A 1.91, Y 1.79, W 2.09, T 1.79, K 1.69, Q 2.02
Y17: K 2.89, I 2.92, T 3.76, H 3.05, F 2.16, M 2.68, P 4.27, N 3.09, W 2.48, S 3.49, V 3.33, A 3.16, L 2.36, E 3.97, C 3.09, G 4.22, D 2.92, Q 4.02, R 2.73
F20: W 1.9, G 2.81, I 1.71, M 2.17, H 2.73, Y 2.38, R 2.8, V 2.02, L 2.19, Q 2.55, T 2.41, S 3.01, C 2.66, K 2.81, E 3.58, D 2.62, P 2.5, N 2.61, A 2.83
Y5: W 2.21
E15: Y 1.8, P 1.59, Q 1.91, V 2.33, D 2.59, N 1.75, C 1.67, M 1.39, K 2.96, A 1.38, R 2.06, F 1.56, S 2.03, I 1.71, T 1.83, G 1.56, H 2.15, L 1.96, W 2.29
I13: C 3.79, A 2.31, S 2.17, D 2.69, P 2.45, W 2.66, V 2.07, K 2.79, R 2.53, Q 2.19, E 2.9, F 2.66, H 2.82, G 2.29, N 2.46, L 1.99, Y 2.83, M 2.65, T 2.91
H23: I 2.43, C 1.84, E 2.63, A 2.25, L 2.73, M 2.49, N 2.3, P 1.6, K 3.21, F 2.19, G 2.04, D 2.12
E18: T 2.52, Y 2.15, N 2.15, A 2.19, K 1.72, H 1.89, L 1.55, R 1.96, C 1.57, Q 1.8, I 2.28, P 1.77, W 1.34, D 2.6, V 3.55, M 2.27, S 1.91, F 1.21
C21: S 2.48, K 2.66, M 2.32, P 2.11, N 2.58, W 2.31, Y 1.77, F 2.1, T 1.97, D 3.33, I 2.05, V 2.62, Q 3.08, L 2.13, G 2.55, E 3.12, A 3.33, R 2.46, H 2.18
L16: D 3.13, Q 4.14, G 3.3, E 3.18, T 2.5, S 2.79, W 2.03, K 3.02, H 3.48, N 2.86, I 2.59, F 2.62, M 3.39, A 2.56, C 2.42, P 3, R 2.71, Y 2.13, V 2.28
K14: N 2.31, R 2.72, M 1.53, F 1.87, T 2.29, A 2.33, P 2.05, L 1.49, H 2.28, G 2.37, W 2.73, D 2.81, S 1.66, Y 1.62, Q 2.39, C 2.15, I 1.62, V 2.17, E 2.53
Q6: I 1.57, D 2.35, M 2.08, P 2.09, Y 2.24, W 1.51, E 2.16, V 2.11, S 2, A 2.21, L 2.19, T 2.04, G 2.67, N 2.06, K 2.26, R 2.03, C 2.38, F 2.1, H 2.03
